Where two headings read alike, the source gives them in different places.
Key:
[1] = target: T1, PDGF-BB (Homo sapiens, UniProt P01127); assay: Equilibrium binding of 125I-PDGF-BB to FN, FN domains and peptides; settings: for Kd: equilibrium binding
Procedure: (§1) 20 μl of 50% v/v peptide-agarose beads are incubated with 125I-PDGF in 0.1 ml of binding buffer (DMEM+2% BSA) at room temperature for 2 hours with rotation. Beads are washed 6 times with DMEM. Bound PDGF-BB are released by the addition of 100 μl of 1M NaOH. The radioactivity bound to FN-beads are quantified in a γ-counter. Nonspecific binding are established from ^125I-PDGF binding to nonconjugated beads, then specific binding derived by subtraction of nonspecific binding from total binding. Binding constants (KD) and Bmax are determined from nonlinear regression of specific binding curves using Prism 4 from GraphPad Software, San Diego, Calif. “Scatchard plots” are derived from the KD and Bmax obtained with non linear regression analysis.

[2] = target: T1, PDGF-BB; assay: Surface plasmon resonance (Biacore), PDGF-BB; type: binding
Procedure: (§2) In the Biacore2000 system, binding constants from kinetic data are determined by passing varying concentrations of FN peptides (analytes) over chip surfaces which are coupled with PDGF-BB (ligand), respectively. All kinetic experiments are carried out at 20° C. at a flow rate of 20 μl/min. For mass transport experiments, each analyte is injected at a fixed concentration and run at flow rates ranging from 5 to 75 μl/min. All analytes are injected over PDGF-BB ligand surfaces as well as over a control surface for 120 s, followed by 300 s of dissociation in running buffer. Regeneration of the sensor chip for subsequent injections is accomplished by pulse of 0.1% SDS. Mass transport experiments have detected little difference in response at different flow rates thus validating data from kinetic experiments. Sensorgrams are prepared and globally fitted using nonlinear least-squares analysis and numerical integration of the differential rate equations with the Biacore Bioevaluation software. Each sensogram generated using a control surface is substracted from the corresponding experimental sensorgrams, and the resulting curves are transformed to concentration units using the molecular mass of the injected species, the equivalence of 1000 resonance units (RU) per 1 ng/mm^2, and a matrix thickness of 100 nm. Each data set, which consists of a series of sensorgrams from injections of different concentration of analyte over the same surface, are analyzed using kinetic models from Biaevaluation software.

[3] = target: T2, TGF-β1 (Homo sapiens, UniProt P01137); assay: Equilibrium binding of TGF-β1 to FN, FN domains and peptides
T2 sequence (P01137 279-390 limits assumed): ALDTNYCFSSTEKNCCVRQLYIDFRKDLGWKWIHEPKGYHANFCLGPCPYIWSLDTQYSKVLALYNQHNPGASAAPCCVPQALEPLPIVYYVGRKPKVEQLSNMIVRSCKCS
Procedure: [The source words this procedure for another target and reports this target under the same test.] as §1

[4] = target: T2, TGF-β1; assay: Surface plasmon resonance, TGF-β1; type: binding
Procedure: [The source words this procedure for another target and reports this target under the same test.] as §2

[5] = target: bFGF (FGF-2) (Homo sapiens, UniProt P09038); assay: Equilibrium binding of bFGF (FGF-2) to FN and FN domains; settings: method not restated (equilibrium and kinetic binding performed); read-out: KD, bFGF binding
Sequence of bFGF (FGF-2) (P09038 143-288): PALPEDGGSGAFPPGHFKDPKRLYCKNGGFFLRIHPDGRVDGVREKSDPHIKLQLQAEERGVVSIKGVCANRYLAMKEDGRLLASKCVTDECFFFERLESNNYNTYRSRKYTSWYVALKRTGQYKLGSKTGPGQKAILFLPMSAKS
Procedure: [The source words this procedure for another target and reports this target under the same test.] as §1

[6] = test system: GFs (TGF-β1, PDGF-BB, VEGF, FGF-2); assay: Binding of growth factors to FN domains, GFs reported together
Procedure: as §1
In the Biacore2000 system, binding constants from kinetic data are determined by passing varying concentrations of FN peptides (analytes) over chip surfaces which are coupled with PDGF-BB (ligand), respectively. All kinetic experiments are carried out at 20° C. at a flow rate of 20 μl/min. […] Mass transport experiments have detected little difference in response at different flow rates thus validating data from kinetic experiments. […] Each data set, which consists of a series of sensorgrams from injections of different concentration of analyte over the same surface, are analyzed using kinetic models from Biaevaluation software.

[7] = target: EGF (Homo sapiens, UniProt P01133); assay: Binding of EGF to FN, FN domains and peptides
Sequence of EGF (P01133 971-1023 limits assumed, species assumed): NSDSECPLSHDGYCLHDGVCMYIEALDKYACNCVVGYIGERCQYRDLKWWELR

[8] = test system: FN-null cells; assay: FN-null cell survival on surfaces coated with FN domains; type: cell-based, mouse; settings: for FN-null cell survival / proliferation: FNIII8-11 ± named FN domain, or named FN construct, PDGF-BB added 2 hrs after plating; for FN-null cell survival with PDGF at 3 days: surface precoated with 0.15 μM GST-tagged FNIII8-11 ± named FN domain, or named FN construct, PDGF-BB added 1 day after plating
Procedure: To further investigate the response of cells to PDGF-BB bound to FN domains, we investigated the survival response of mouse fibroblasts null for FN (FN−/−), or “FN-null”. First we determined the response of FN-null cells to PDGF-BB in the absence of serum or other sources of exogenous FN. […] Next, FN-null cells were plated on tissue culture plastic surfaces precoated with 0.15 μM GST-tagged FNIII8-11±other FN domains known to have PDGF-BB binding activity and then PDGF-BB added 1 day later. […] Importantly, differential response of FN-null cells, plated on different FN domains, to PDGF-BB was not secondary to differences in attachment as judged by cell counts two hours after plating. The FNIII8-11 central cell binding domain was present in all circumstances.

[9] = target: FGF-2 (Homo sapiens, UniProt P09038); assay: Surface plasmon resonance, FGF-2; settings: read-out: KD, FGF-2 binding
Sequence of FGF-2 (P09038 143-288): as the sequence (P09038 143-288) above
Procedure: [The source words this procedure for another target and reports this target under the same test.] as §2, with “Each sensogram generated using a control surface is substracted from the corresponding experimental sensorgrams, and the resulting curves are transformed to concentration units using the molecular mass of the injected species, the equivalence of 1000 resonance units (RU) per 1 ng/mm^2, and a matrix thickness of 100 nm.” left out

[10] = target: T3, VEGF (Homo sapiens, UniProt P15692); assay: Surface plasmon resonance, VEGF; type: binding; settings: plasmon resonance; read-out: KD, VEGF binding
T3 sequence (P15692 27-191 isoform P15692-4): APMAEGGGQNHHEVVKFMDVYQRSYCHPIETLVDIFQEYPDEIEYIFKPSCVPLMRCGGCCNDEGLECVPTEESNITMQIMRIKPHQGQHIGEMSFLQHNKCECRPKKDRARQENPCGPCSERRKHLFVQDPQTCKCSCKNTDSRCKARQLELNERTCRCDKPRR

[11] = test system: GFs (TGF-β1, PDGF-BB, VEGF, FGF-2); assay: Binding of growth factors to FN domains, GFs reported together; remark: listed apart in the source
[12] = plasmon resonance, kinetic binding
[13] = method not restated (equilibrium and kinetic binding performed)
[14] = method not restated, read-out: KD, PDGF-BB binding
[15] = method not restated, read-out: KD, TGF-β1 binding

T1 sequence (P01127 82-190 limits assumed): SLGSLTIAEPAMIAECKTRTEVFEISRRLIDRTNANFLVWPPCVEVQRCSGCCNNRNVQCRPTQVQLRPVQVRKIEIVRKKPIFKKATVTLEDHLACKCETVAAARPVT

B1: FNIII1-7: FN domain, type III repeats 1-7 (protein)
chain: MGSGPVEVFITETPSQPNSHPIQWNAPQPSHISKYILRWRPKNSVGRWKEATIPGHLNSYTIKGLKPGVVYEGQLISIQQYGHQEVTRFDFTTTSTSTPVTSNTVTGETTPFSPLVATSESVTEITASSFVVSWVSASDTVSGFRVEYELSEEGDEPQYLDLPSTATSVNIPDLLPGRKYIVNVYQISEDGEQSLILSTSQTTAPDAPPDTTVDQVDDTSIVVRWSRPQAPITGYRIVYSPSVEGSSTELNLPETANSVTLSDLQPGVQYNITIYAVEENQESTPVVIQQETTGTPRSDTVPSPRDLQFVEVTDVKVTIMWTPPESAVTGYRVDVIPVNLPGEHGQRLPISRNTFAEVTGLSPGVTYYFKVFAVSHGRESKPLTAQQTTKLDAPTNLQFVNETDSTVLVRWTPPRAQITGYRLTVGLTRRGQPRQYNVGPSVSKYPLRNLQPASEYTVSLVAIKGNQESPKATGVFTTLQPGSSIPPYNTEVTETTIVITWTPAPRIGFKLGVRPSQGGEAPREVTSDSGSIVVSGLTPGVEYVYTIQVLRDGQERDAPIVNKVVTPLSPPTNLHLEANPDTGVLTVSWERSTTPDITGYRITTTPTNGQQGNSLEEVVHADQSSCTFDNLSPGLEYNVSVYTVKDDKESVPISDTIIPETSHHHHHHC
[1]
  Kd: 75 nM
[2]; [12]
  Kd: 100 nM
[3]; equilibrium binding
  Kd: 17 nM
[4]; [12]
  Kd: 18 nM
[5]
  Kd: 4.1 nM
[6]
  Binding of the GFs tested, in words: all four GFs bound

B2: IIICS: variably-spliced IIICS domain of FN (protein)
chain: MGSDELPQLVTLPHPNLHGPEILDVPSTVQKTPFVTHPGYDTGNGIQLPGTSGQQPSVGQQMIFEEHGFRRTTPPTTATPIRHRPRPYPPNVGEEIQIGHIPREDVDYHLYPHGPGLNPNASTTSHHHHHHC
[1]
  Kd: 350 nM
[3]; [13]
  Kd: 74 nM
[7]
  EGF binding, in words: failed to bind
[8]
  FN-null cell survival / proliferation: enhance survival
  FN-null cell survival with PDGF at 3 days: increased survival

B3: FNIII12-14: recombinant heparinII-binding domain of FN, type III repeats 12-14 (protein)
chain: MGSAIPAPTDLKFTQVTPTSLSAQWTPPNVQLTGYRVRVTPKEKTGPMKEINLAPDSSSVVVSGLMVATKYEVSVYALKDTLTSRPAQGVVTTLENVSPPRRARVTDATETTITISWRTKTETITGFQVDAVPANGQTPIQRTIKPDVRSYTITGLQPGTDYKIYLYTLNDNARSSPVVIDASTAIDAPSNLRFLATTPNSLLVSWQPPRARITGYIIKYEKPGSPPREVVPRPRPGVTEATITGLEPGTEYTIYVIALKNNQKSEPLIGRKKTTSHHHHHHC
[1]
  Kd: 35 nM
[2]; [14]
  Kd: 55 nM
[3]; [13]
  Kd: 7.6 nM
[4]; [15]
  Kd: 7.6 nM
[5]
  Kd: 1.9 nM
[8]
  FN-null cell survival / proliferation: enhance survival
  FN-null cell survival with PDGF at 3 days: increased survival

B4: FNIII12-15: heparin II binding domain of FN (protein)
chain: MGSTIPAPTDLKFTQVTPTSLSAQWTPPNVQLTGYRVRVTPKEKTGPMKEINLAPDSSSVVVSGLMVATKYEVSVYALKDTLTSRPAQGVVTTLENVSPPRRARVTDATETTITISWRTKTETITGFQVDAVPANGQTPIQRTIKPDVRSYTITGLQPGTDYKIYLYTLNDNARSSPVVIDASTAIDAPSNLRFLATTPNSLLVSWQPPRARITGYIIKYEKPGSPPREVVPRPRPGVTEATITGLEPGTEYTIYVIALKNNQKSEPLIGRKKTGQEALSQTTISWAPFQDTSEYIISCHPVGTDEEPLQFRVPGTSTSATLTGLTRGATYNVIVEALKDQQRHKVREEVVTVGNSVNEGTSHHHHHHC
[1]
  Kd: 6.8 nM
[2]; [14]
  Kd: 6.8 nM
[3]; [13]
  Kd: 16 nM
[4]; [15]
  Kd: 16 nM
[5]
  Kd: 130 nM
[9]; method not restated
  Kd: 170 nM

B5: FNIII12-V15: composite heparinII-binding and variably-spliced IIICS domains of FN (protein)
chain: MGSAIPAPTDLKFTQVTPTSLSAQWTPPNVQLTGYRVRVTPKEKTGPMKEINLAPDSSSVVVSGLMVATKYEVSVYALKDTLTSRPAQGVVTTLENVSPPRRARVTDATETTITISWRTKTETITGFQVDAVPANGQTPIQRTIKPDVRSYTITGLQPGTDYKIYLYTLNDNARSSPVVIDASTAIDAPSNLRFLATTPNSLLVSWQPPRARITGYIIKYEKPGSPPREVVPRPRPGVTEATITGLEPGTEYTIYVIALKNNQKSEPLIGRKKTDELPQLVTLPHPNLHGPEILDVPSTVQKTPFVTHPGYDTGNGIQLPGTSGQQPSVGQQMIFEEHGFRRTTPPTTATPIRHRPRPYPPNVGEEIQIGHIPREDVDYHLYPHGPGLNPNASTGQEALSQTTISWAPFQDTSEYIISCHPVGTDEEPLQFRVPGTSTSATLTGLTRGATYNVIVEALKDQQRHKVREEVVTVGNSVNEGTSHHHHHHC
[1]
  Kd: 21 nM
[2]; [12]
  Kd: 17 nM
[3]; equilibrium binding
  Kd: 97 nM
[5]
  Kd: 37 nM
[9]; plasmon resonance
  Kd: 37 nM
[10]
  Kd: 0.6 nM
[8]
  FN-null cell survival / proliferation: enhance survival
[11]
  GF binding with up to 2.5 M NaCl or pH lowered to about 2.0: failed to demonstrate any diminution

B6: FNIII3-6: recombinant FN domain, type III repeats 3-6 (protein)
chain: MGSAPPDTTVDQVDDTSIVVRWSRPQAPITGYRIVYSPSVEGSSTELNLPETANSVTLSDLQPGVQYNITIYAVEENQESTPVVIQQETTGTPRSDTVPSPRDLQFVEVTDVKVTIMWTPPESAVTGYRVDVIPVNLPGEHGQRLPISRNTFAEVTGLSPGVTYYFKVFAVSHGRESKPLTAQQTTKLDAPTNLQFVNETDSTVLVRWTPPRAQITGYRLTVGLTRRGQPRQYNVGPSVSKYPLRNLQPASEYTVSLVAIKGNQESPKATGVFTTLQPGSSIPPYNTEVTETTIVITWTPAPRIGFKLGVRPSQGGEAPREVTSDSGSIVVSGLTPGVEYVYTIQVLRDGQERDAPIVNKVVTPLSTSHHHHHHC
[1]; equilibrium binding and/or plasmon resonance
  PDGF-BB binding, in words: did not
[2]; surface resonance
  PDGF-BB binding, in words: no binding
[8]; cells plated on named FN construct, or on FNIII8-11 ± named domain
  FN-null cell survival / proliferation, summary statement: did not support cell survival
[6]
  Binding of the GFs tested, in words: In no case did any GF bind

B7: FNIII12-13: FN domain, type III repeats 12-13 (protein)
chain: MGSAIPAPTDLKFTQVTPTSLSAQWTPPNVQLTGYRVRVTPKEKTGPMKEINLAPDSSSVVVSGLMVATKYEVSVYALKDTLTSRPAQGVVTTLENVSPPRRARVTDATETTITISWRTKTETITGFQVDAVPANGQTPIQRTIKPDVRSYTITGLQPGTDYKIYLYTLNDNARSSPVVIDASTTSHHHHHHC
[1]
  Kd: 75 nM

From patent publication US8759300B2, “Polypeptides and methods of use” (The Research Foundation for the State University of New York, priority 2007, dated 2014)
